Measured values published in publication PMC5520057, “Modulation of nongenomic activation of PI3K signalling by tetramerization of N-terminally-cleaved RXRα” (Nature Communications, 2017).
Several values for one entry are separate records, joined by “and”; a condition that tells them apart may be missing. Identical values can stand only once.

B1: His-RXRα-LBD [human] / itself (parent)
chain: TSSANEDMPVERILEAELAVEPKTETYVEANMGLNPSSPNDPVTNICQAADKQLFTLVEWAKRIPHFSELPLDDQVILLRAGWNELLIASFSHRSIAVKDGILLATGLHVHRNSAHSAGVGAIFDRVLTELVSKMRDMQMDKTELGCLRAIVLFNPDSKGLSNPAEVEALREKVYASLEAYCKHKYPEQPGRFAKLLLRLPALRSIGLKCLEHLFFFKLIGDTPIDTFLMEMLEAPHQMT

Variants of: B1
Assay: non-denaturing polyacrylamide gel electrophoresis, densitometry
Details: with itself

| screen value (DMSO (no K-80003, no 9-cis-RA)) | screen value (K-80003) | screen value (K-80003 + 9-cis-RA) | Variant |
| --- | --- | --- | --- |
| 53% and 47% | 58% and 42% | – | TSSANEDMPVERILEAELAVEPKTETYVEANMGLNPSSPNDPVTNICQAADKELFTLVEWAKRIPHFSELPLDDQVILLRAGWNELLIASFSHRSIAVKDGILLATGLHVHRNSAHSAGVGAIFDRVLTELVSKMRDMQMDKTELGCLRAIVLFNPDSKGLSNPAEVEALREKVYASLEAYCKHKYPEQPGRFAKLLLRLPALRSIGLKCLEHLFFFKLIGDTPIDTFLMEMLEAPHQMT [chain 1 Q53E] |
| 54% and 46% | 43% and 57% | 59% and 41% | TSSANEDMPVERILEAELAVEPKTETYVEANMGLNPSSPNDPVTNICQAADKQLFTLVEWAKRIPHFSELPLDDQVILLRAGWNELLIASFSHRSIAVKDGILLATGLHVHRNSAHSAGVGAIFDRVLTELVSKMRDMQMDKTELGCLRAIVLFNPDSKGLSNPAEVEALREKVYASLEAYCKHKYPEQPGRFAKLLLRLPALRSIGLKCDEHLFFFKLIGDTPIDTFLMEMLEAPHQMT [chain 1 L211D] |
| 47% and 53% | 55% and 45% | – | TSSANEDMPVERILEAELAVEPKTETYVEANMGLNPSSPNDPVTNICQAADKQLFTLVEWAKRIPHFSELPLDDQVILLRAGWNELLIASFSHRSIAVKDGILLATGLHVHRNSAHSAGVGAIFDRVLTELVSKMRDMQMDKTELGCLRAIVLFNPDSKGLSNPAEVEALREKVYASLEAYCKHKYPEQPGRFAKLLLRLPALRSIGLKCLEHLFFAKLIGDTPIDTFLMEMLEAPHQMT [chain 1 F217A] |
